Data published in patent US20200299400A1.

Biological target: human CD73 on human cell lines (human) (UniProt P21589)
Experiment: cell-based or functional assay

Sequence of human CD73 on human cell lines (human) (P21589 27-549): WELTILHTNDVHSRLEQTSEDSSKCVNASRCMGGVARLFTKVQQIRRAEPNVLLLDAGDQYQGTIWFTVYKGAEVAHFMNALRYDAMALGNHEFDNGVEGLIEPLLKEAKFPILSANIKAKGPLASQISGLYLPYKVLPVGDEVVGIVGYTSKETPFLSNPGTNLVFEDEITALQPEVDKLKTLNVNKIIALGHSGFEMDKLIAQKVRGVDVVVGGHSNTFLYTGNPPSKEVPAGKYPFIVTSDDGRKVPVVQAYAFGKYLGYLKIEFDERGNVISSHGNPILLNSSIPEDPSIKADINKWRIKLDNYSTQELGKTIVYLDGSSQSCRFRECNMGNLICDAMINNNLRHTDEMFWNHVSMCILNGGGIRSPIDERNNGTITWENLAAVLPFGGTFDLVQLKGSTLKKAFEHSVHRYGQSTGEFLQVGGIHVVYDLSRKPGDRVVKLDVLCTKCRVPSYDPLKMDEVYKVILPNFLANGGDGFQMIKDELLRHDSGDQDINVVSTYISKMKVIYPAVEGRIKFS

internalization T1/2, Calu6: 36 min
internalization T1/2, NCI-H292: 16.6 min
internalization Ymax, Calu6: 75.6%
internalization Ymax, NCI-H292: 78.4%
B1: mAb-CD73.4-IgG2 (antibody, V domains shown, not shown: a dimerising Fc or GST)
VH: QVQLVESGGGVVQPGRSLRLSCAASGFTFSNYGMHWVRQAPGKGLEWVAVILYDGSNKYYPDSVKGRFTISRDNSKNTLYLQMNSLRAEDTAVYYCARGGSSWYPDSFDIWGQGTMVTVSS
VL: DIQMTQSPSSLSASVGDRVTITCRASQGISSWLAWYQQKPEKAPKSLIYAASSLQSGVPSRFSGSGSGTDFTLTISSLQPEDFATYYCQQYNSYPLTFGGGTKVEIKR
